# Data from the supplement of paper PMC11316812.
# ± gives the standard deviation of the averaged measurements.
# Experiments:
# hTERT-HMEC = assay: percentage of EdU-negative (G0-arrested) nuclei per well, 72 h; higher = more G0 arrest; conditions: reference: sequence is the full UniProt precursor, the tested protein was the secreted form or ectodomain
# MCF7 = assay: as above; conditions: reference: sequence is the full UniProt precursor, the tested protein was the secreted form or ectodomain
# [1] = protein concentration 0.007735 µM
# [2] = protein concentration 0.07735 µM
# [3] = protein concentration 0.0225 µM
# [4] = protein concentration 0.02085 µM
# [5] = protein concentration 0.2085 µM
# [6] = protein concentration 0.0354286 µM
# [7] = protein concentration 0.354286 µM
# 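Further: secreted proteins added to cultured cells, EdU pulse at the end, nuclei found by Hoechst imaging, EdU status from nuclear versus surrounding ring intensity ratio, PBS as neutral control.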
sequence,measurement,setting,value
MVSYWDTGVLLCALLSCLLLTGSSSGSKLKDPELSLKGTQHIMQAGQTLHLQCRGEAAHKWSLPEMVSKESERLSITKSACGRNGKQFCSTLTLNTAQANHTGFYSCKYLAVPTSKKKETESAIYIFISDTGRPFVEMYSEIPEIIHMTEGRELVIPCRVTSPNITVTLKKFPLDTLIPDGKRIIWDSRKGFIISNATYKEIGLLTCEATVNGHLYKTNYLTHRQTNTIIDVQISTPRPVKLLRGHTLVLNCTATTPLNTRVQMTWSYPDEKNKRASVRRRIDQSNSHANIFYSVLTIDKMQNKDKGLYTCRVRSGPSFKSVNTSVHIYDKAFITVKHRKQQVLETVAGKRSYRLSMKVKAFPSPEVVWLKDGLPATEKSARYLTRGYSLIIKDVTEEDAGNYTILLSIKQSNVFKNLTATLIVNVKPQIYEKAVSSFPDPALYPLGSRQILTCTAYGIPQPTIKWFWHPCNHNHSEARCDFCSNNEESFILDADSNMGNRIESITQRMAIIEGKNKMASTLVVADSRISGIYICIASNKVGTVGRNISFYITDVPNGFHVNLEKMPTEGEDLKLSCTVNKFLYRDVTWILLRTVNNRTMHYSISKQKMAITKEHSITLNLTIMNVSLQDSGTYACRARNVYTGEEILQKKEITIRDQEAPYLLRNLSDHTVAISSSTTLDCHANGVPEPQITWFKNNHKIQQEPGIILGPGSSTLFIERVTEEDEGVYHCKATNQKGSVESSAYLTVQGTSDKSNLELITLTCTCVAATLFWLLLTLFIRKMKRSSSEIKTDYLSIIMDPDEVPLDEQCERLPYDASKWEFARERLKLGKSLGRGAFGKVVQASAFGIKKSPTCRTVAVKMLKEGATASEYKALMTELKILTHIGHHLNVVNLLGACTKQGGPLMVIVEYCKYGNLSNYLKSKRDLFFLNKDAALHMEPKKEKMEPGLEQGKKPRLDSVTSSESFASSGFQEDKSLSDVEEEEDSDGFYKEPITMEDLISYSFQVARGMEFLSSRKCIHRDLAARNILLSENNVVKICDFGLARDIYKNPDYVRKGDTRLPLKWMAPESIFDKIYSTKSDVWSYGVLLWEIFSLGGSPYPGVQMDEDFCSRLREGMRMRAPEYSTPEIYQIMLDCWHRDPKERPRFAELVEKLGDLLQANVQQDGKDYIPINAILTGNSGFTYSTPAFSEDFFKESISAPKFNSGSSDDVRYVNAFKFMSLERIKTFEELLPNATSMFDDYQGDSSTLLASPMLKRFTWTDSKPKASLKIDLRVTSKSKESGLSDVSRPSFCHSSCGHVSEGKRRFTYDHAELERKIACCSPPPDYNSVVLYSTPPI,percentage of EdU-negative,hTERT-HMEC; [1],4.97 ± 0.54%
same,percentage of EdU-negative,hTERT-HMEC; [2],5.7 ± 0.039%
same,percentage of EdU-negative,MCF7; [1],26.6 ± 3%
same,percentage of EdU-negative,MCF7; [2],28.1 ± 1.6%
MGTSLLCWMALCLLGADHADTGVSQNPRHKITKRGQNVTFRCDPISEHNRLYWYRQTLGQGPEFLTYFQNEAQLEKSRLLSDRFSAERPKGSFSTLEIQRTEQGDSAMYLCASSL,percentage of EdU-negative,hTERT-HMEC; [3],5.02 ± 0.49%
same,percentage of EdU-negative,hTERT-HMEC; protein concentration 0.225 µM,6.26 ± 1.2%
same,percentage of EdU-negative,MCF7; [3],27 ± 1.4%
same,percentage of EdU-negative,MCF7; protein concentration 0.225 µM,26.8 ± 1.4%
MDLVLKRCLLHLAVIGALLAVGATKVPRNQDWLGVSRQLRTKAWNRQLYPEWTEAQRLDCWRGGQVSLKVSNDGPTLIGANASFSIALNFPGSQKVLPDGQVIWVNNTIINGSQVWGGQPVYPQETDDACIFPDGGPCPSGSWSQKRSFVYVWKTWGQYWQVLGGPVSGLSIGTGRAMLGTHTMEVTVYHRRGSRSYVPLAHSSSAFTITDQVPFSVSVSQLRALDGGNKHFLRNQPLTFALQLHDPSGYLAEADLSYTWDFGDSSGTLISRALVVTHTYLEPGPVTAQVVLQAAIPLTSCGSSPVPGTTDGHRPTAEAPNTTAGQVPTTEVVGTTPGQAPTAEPSGTTSVQVPTTEVISTAPVQMPTAESTGMTPEKVPVSEVMGTTLAEMSTPEATGMTPAEVSIVVLSGTTAAQVTTTEWVETTARELPIPEPEGPDASSIMSTESITGSLGPLLDGTATLRLVKRQVPLDCVLYRYGSFSVTLDIVQGIESAEILQAVPSGEGDAFELTVSCQGGLPKEACMEISSPGCQPPAQRLCQPVLPSPACQLVLHQILKGGSGTYCLNVSLADTNSLAVVSTQLIMPGQEAGLGQVPLIVGILLVLMAVVLASLIYRRRLMKQDFSVPQLPHSSSHWLRLPRIFCSCPIGENSPLLSGQQV,percentage of EdU-negative,hTERT-HMEC; [4],4.37 ± 0.18%
same,percentage of EdU-negative,hTERT-HMEC; [5],5.18 ± 0.52%
same,percentage of EdU-negative,MCF7; [4],25.3 ± 1.8%
same,percentage of EdU-negative,MCF7; [5],25.4 ± 2.4%
MDGLPGRALGAACLLLLAAGWLGPEAWGSPTPPPTPAAPPPPPPPGSPGGSQDTCTSCGGFRRPEELGRVDGDFLEAVKRHILSRLQMRGRPNITHAVPKAAMVTALRKLHAGKVREDGRVEIPHLDGHASPGADGQERVSEIISFAETDGLASSRVRLYFFISNEGNQNLFVVQASLWLYLKLLPYVLEKGSRRKVRVKVYFQEQGHGDRWNMVEKRVDLKRSGWHTFPLTEAIQALFERGERRLNLDVQCDSCQELAVVPVFVDPGEESHRPFVVVQARLGDSRHRIRKRGLECDGRTNLCCRQQFFIDFRLIGWNDWIIAPTGYYGNYCEGSCPAYLAGVPGSASSFHTAVVNQYRMRGLNPGTVNSCCIPTKLSTMSMLYFDDEYNIVKRDVPNMIVEECGCA,percentage of EdU-negative,hTERT-HMEC; [6],5.47 ± 0.17%
same,percentage of EdU-negative,hTERT-HMEC; [7],8.73 ± 0.18%
same,percentage of EdU-negative,MCF7; [6],24.4 ± 0.62%
same,percentage of EdU-negative,MCF7; [7],29.05 ± 0.099%
MEEAILVPCVLGLLLLPILAMLMALCVHCHRLPGSYDSTSSDSLYPRGIQFKRPHTVAPWPPAYPPVTSYPPLSQPDLLPIPRSPQPLGGSHRTPSSRRDSDGANSVASYENEGASGIRGAQAGWGVWGPSWTRLTPVSLPPEPACEDADEDEDDYHNPGYLVVLPDSTPATSTAAPSAPALSTPGIRDSAFSMESIDDYVNVPESGESAEASLDGSREYVNVSQELHPGAAKTEPAALSSQEAEEVEEEGAPDYENLQELN,percentage of EdU-negative,hTERT-HMEC; [3],5.1 ± 0.68%
same,percentage of EdU-negative,hTERT-HMEC; protein concentration 0.225 µM,5.5816 ± 0.0039%
same,percentage of EdU-negative,MCF7; [3],25.6 ± 1.2%
same,percentage of EdU-negative,MCF7; protein concentration 0.225 µM,25.8 ± 2.6%
